Experimental findings from US20180079802A1 are described below.

Some results are limits rather than exact numbers.

Assay [1] has as its target Recombinant CHIKV E2 ectodomain protein (corresponding to the CHIKV-LR2006 strain) (Chikungunya virus strain LR2006). Nature of the assay: BLI competition, E2 ectodomain on anti-Penta-His tip; first mAb 1H12.
Assay [2] shares this target. Kind of assay: BLI competition, E2 ectodomain on anti-Penta-His tip; first mAb CHK-141 (f2).
The target is the same in assay [3]. Kind of assay: BLI competition, E2 ectodomain on anti-Penta-His tip; first mAb CHK-84 (f1).
Assay [4] has the same target. Nature of the assay: BLI competition, E2 ectodomain on anti-Penta-His tip; first mAb CHK-265 (f3).
For assay [5] the target is unchanged. Kind of assay: BLI competition, E2 ectodomain on anti-Penta-His tip; first mAb 4B8.
The target is the same in assay [6]. Kind of assay: BLI competition, E2 ectodomain on anti-Penta-His tip; first mAb CHK-88 (f4).
The target is the same in assay [7]. Nature of the assay: BLI competition, E2 ectodomain on anti-Penta-His tip; first mAb 1O6.
Assay [8] has the same target. Kind of assay: BLI competition, E2 ectodomain on anti-Penta-His tip; first mAb 5F10 (r1).
The target is the same in assay [9]. Nature of the assay: BLI competition, E2 ectodomain on anti-Penta-His tip; first mAb 5O14.
For assay [10] the target is unchanged. Kind of assay: BLI competition, E2 ectodomain on anti-Penta-His tip; first mAb 3A2.
The target is the same in assay [11]. Nature of the assay: BLI competition, E2 ectodomain on anti-Penta-His tip; first mAb 5M16.
Assay [12] has the same target. Nature of the assay: BLI competition, E2 ectodomain on anti-Penta-His tip; first mAb 5N23.
Assay [13] shares this target. Kind of assay: BLI competition, E2 ectodomain on anti-Penta-His tip; first mAb 9D14.
The target is the same in assay [14]. Kind of assay: ELISA, E2 ectodomain coated. A general note: An ELISA detects its analyte on a solid surface through an enzyme-linked reagent.

On to CHK-265 (antibody), for which the percent binding of competing mAb in presence of first mAb was 52% in assay [1]; 86% in assay [2]; 92% in assay [3]; 2% in [4]; 92% in [5]; 3% in [6]. Further, the percent binding of competing mAb in presence of first mAb in assay [7] was 85%; in [8] it was -3%; in assay [9], 85%; in [10], 95%; in assay [11] it was 84%; in assay [12], 98%. For the same substance, the percent binding of competing mAb in presence of first mAb in assay [13] stood at 105%.
As for murine CHK-152 (antibody), the OD in assay [14] is less than 0.1 od.
